Results from the supplement of paper PMC9170038.

Test system: MS2 coat protein
Assay: apparent KD of MS2 coat protein; designed switch direction (-1 OFF switch, 1 ON switch): 1; higher = weaker reporter binding
Procedure, shortened: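 Designed RNA switches sharing common flanks were transcribed on Illumina chips by stalled E. coli RNA polymerase. They were titrated with SNAP-549-labelled MS2 coat protein, from 0.7 or 1.5 nM doubling to 3 µM, in Tris-HCl pH 7.5 buffer with KCl, MgCl2, BSA, DTT, tRNA and Tween-20. Titrations ran without input, with 200 uM small-molecule ligand, or with an oligonucleotide input. The apparent KD of each design is the median over its clusters, after curve-fitting of normalised cluster fluorescence.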

[1] = Eterna round: R95, input ligand: FMN 200 uM
[2] = Eterna round: R95, input ligand: microRNA oligo, concentration not stated
[3] = Eterna round: R95, input ligand: none
[4] = input ligand: microRNA oligo, concentration not stated

GGUCCAGCCUGAGCUGGACAAAAGCAUGUACAUGAGGAUCACCCAUGUCAUGUACAAGCUUUUUGCUCGUCUUGAAA [JL mod - D87 - 8] (puzzle: Sensor for hsa-mir-208a)
apparent KD of MS2 coat protein [1]: 359 nM | apparent KD of MS2 coat protein [2]: 16.5 nM | apparent KD of MS2 coat protein [3]: 867 nM

GUGGUCAGACAUGAGGAUCACCCAUGUGGAAUAAAUAACAGACAGGAUAUUAAAUAUAGGAUAUAUAAGAAGGGUCGAUUGGUG (Eterna round: R96, puzzle: Same State NG 3)
apparent KD of MS2 coat protein [4]: 78.5 nM

GGAGCCAAGGCAGGAUAUUCAUAUAAAUAAACAUGAGGAUCACCCAUGUAGGCCAGAAGGCCUUGGGAGAAGGGCCAUGGCUCG [Xeonanis - 13 mod6] (Eterna round: R96, puzzle: Same State NG 2)
apparent KD of MS2 coat protein (input ligand: FMN 200 uM): 19.4 nM | apparent KD of MS2 coat protein [4]: 69.8 nM | apparent KD of MS2 coat protein (input ligand: none): 121 nM

GUCCAACAUGAGGAUCACCCAUGUCGGGCGUGCACAGGAUAUCGCGCCGGGAAAGACCAGCGAGAAGGGUGAUCGA [Leriqu] (puzzle: Same State 1)
apparent KD of MS2 coat protein [1]: 139 nM | apparent KD of MS2 coat protein [2]: 51.4 nM | apparent KD of MS2 coat protein [3]: 57.5 nM

GGAUCGGAGGCAGGAUAUGGGCUCAGAACAUGAGGAUCACCCAUGUAAAACGGCGCAAUGCGCCACCAGAAGGGCCUCCAGUCG [Esussoed] (Eterna round: R96, puzzle: Same State NG 2)
apparent KD of MS2 coat protein (input ligand: FMN 200 uM): 13.2 nM | apparent KD of MS2 coat protein [4]: 25.7 nM | apparent KD of MS2 coat protein (input ligand: none): 44.1 nM

GCUUCACAUGAGGAUCACCCAUGUCUUCGGAGUCGAGGAUAUGGUAACUGUAAACAGUUGCCAGAAGGCGAGGAGC [SS1 - Son of Teenbexe v9] (puzzle: Same State 1)
apparent KD of MS2 coat protein [2]: 54.6 nM

AGCGAACAGGCUAACAUGAGGAUCACCCAUGUGGACUCAUGUUAGGAUAUCGGGAAGGAGGAAACCGAGAAGGGACGGUGAGCC [AK SSNG3-V2-46] (Eterna round: R96, puzzle: Same State NG 3)
apparent KD of MS2 coat protein (input ligand: FMN 200 uM): 332 nM | apparent KD of MS2 coat protein [4]: 14.6 nM | apparent KD of MS2 coat protein (input ligand: none): 30.6 nM

UUGAAGAAUUAAGGAUAUCGAGUACAUAUGUUAAACAUGAGGAUCACCCAUGUGGGUUGCGGUAUCGAGAAGGUAAAAUACAAG [Mat - Same State NG 2 - JL mod - D58] (Eterna round: R96, puzzle: Same State NG 2)
apparent KD of MS2 coat protein (input ligand: FMN 200 uM): 28.8 nM | apparent KD of MS2 coat protein [4]: 26.6 nM | apparent KD of MS2 coat protein (input ligand: none): 33.8 nM

CGGGUGGUUCUAGGAUAUCUAGGAUAUGGACGAGGAUUACCCGAGCAGCAUCAGCGCACCAGAGGAGAGAAGGAGAGUCAUGCG [pwkr ssNG2 2F5 2FMN.9] (Eterna round: R96, puzzle: Same State NG 2)
apparent KD of MS2 coat protein (input ligand: FMN 200 uM): 105 nM | apparent KD of MS2 coat protein [4]: 72.5 nM | apparent KD of MS2 coat protein (input ligand: none): 86.8 nM

GGUCCCUACGCACAGGAUAUUCUUUUGGCAACAUGAGGAUCACCCAUGUGUGCCGAUCAUGGUUAGAAGAAGGGUGGUAGGGACC [Usisus] (Eterna round: R96, puzzle: Same State 2)
apparent KD of MS2 coat protein (input ligand: FMN 200 uM): 10 nM | apparent KD of MS2 coat protein [4]: 10.5 nM | apparent KD of MS2 coat protein (input ligand: none): 19.8 nM

AUUAUACAUGAGGAUCACCCAUGUAAUUAAUUAAUUAAGAUCAAGGAUAUCAGCUCGAUUAGAGCUGAGAAGGUGAUCACAUGU [SSNG3/20-B2] (Eterna round: R96, puzzle: Same State NG 3)
apparent KD of MS2 coat protein [4]: 170 nM

GUUACAUGAGGAUCACCCAUGUAUGUGUGGGAGUAAGUGUCUUAGGAUAUCUAUCAUUUAAGUUAAGAGAAGGAAGAUUGUUGU [JMF's solution 95] (Eterna round: R96, puzzle: Same State NG 3)
apparent KD of MS2 coat protein (input ligand: FMN 200 uM): 135 nM | apparent KD of MS2 coat protein [4]: 80.4 nM | apparent KD of MS2 coat protein (input ligand: none): 108 nM

CGGGUAAUCGUAGGAUAUCUAGGAUAUGAACGAGGAUCACCCGAGCAGCAUCAGCGCAUCAGAGGAGAGAAGGACGAUGAUGCG [pwkr ssNG2 2F5 2FMN.18] (Eterna round: R96, puzzle: Same State NG 2)
apparent KD of MS2 coat protein (input ligand: FMN 200 uM): 164 nM | apparent KD of MS2 coat protein [4]: 199 nM | apparent KD of MS2 coat protein (input ligand: none): 470 nM

CUGUAUCGCGGAGGAUAUGGGCUGAGACCAGGGCAACCCUGGUCAACAUGAGGAUCACCCAUGUCCCAGAAGGCCGCGAUGCUA [Diaraenve] (Eterna round: R96, puzzle: Same State NG 2)
apparent KD of MS2 coat protein (input ligand: FMN 200 uM): 19.7 nM | apparent KD of MS2 coat protein [4]: 73.6 nM | apparent KD of MS2 coat protein (input ligand: none): 113 nM

GUGGUCAGACAUGAGGAUCACCCAUGUGGAAUAAAUAAGGUCAAGGAUAUUGAAUAUAGGAUAUACAAGAAGGUGAGGUUGGUG (Eterna round: R96, puzzle: Same State NG 3)
apparent KD of MS2 coat protein (input ligand: FMN 200 uM): 140 nM | apparent KD of MS2 coat protein [4]: 94.9 nM | apparent KD of MS2 coat protein (input ligand: none): 115 nM

ACUCGGCAGAUAGGAUAUCCUGCAUGGAUAGUAGGAGAAGGAUCGUGCGCACAUGAGGAUCACCCAUGUGCCAAAUAAUAACAA [Reatedor] (Eterna round: R96, puzzle: Same State NG 1)
apparent KD of MS2 coat protein (input ligand: FMN 200 uM): 11 nM | apparent KD of MS2 coat protein [4]: 12.8 nM | apparent KD of MS2 coat protein (input ligand: none): 18.4 nM

AUUAUUAAUGCAGGAUAUGAUUAACAUGAGGAUCACCCAUGUGGUGUUGUGAGUAAGGAGAGUGAUCAGAAGGGCAUUUUUUUU [JMF's solution 6] (Eterna round: R96, puzzle: Same State NG 2)
apparent KD of MS2 coat protein [4]: 463 nM

UGGUAACAUGAGGAUCACCCAUGUCAAAUGAAUCGAGGAUAUGGGAAUUAAUAAUAUAAACUAGAAGGCGAAUUUG [Altered State 1-6 - Jieux - Same State 1] (puzzle: Same State 1)
apparent KD of MS2 coat protein [1]: 85.6 nM | apparent KD of MS2 coat protein [2]: 123 nM | apparent KD of MS2 coat protein [3]: 52.7 nM

GUAAUACAUGAGGAUCACCCAUGUCAAUGUAGUCGAGGAUAUGGGUAGCUAUGAGGCGUACUAGAAGGCGAGGAGU [JL-ss1-3.18 ViennaUCT mod] (puzzle: Same State 1)
apparent KD of MS2 coat protein [1]: 258 nM | apparent KD of MS2 coat protein [2]: 72.1 nM | apparent KD of MS2 coat protein [3]: 85.8 nM

ACAUGAGGAUCACCCAUGUAGGCUCAGGAAACUGUGCCACAUGAGGAUAUGGAUCCUAAUUGGAUCCAGAAGGCAUGAUUUAUU [Fiskers NG3ss - 21] (Eterna round: R96, puzzle: Same State NG 3)
apparent KD of MS2 coat protein (input ligand: FMN 200 uM): 243 nM | apparent KD of MS2 coat protein [4]: 1240 nM | apparent KD of MS2 coat protein (input ligand: none): 1290 nM

AUGAAGAAUUAAGGAUAUUGAUUACAUAUGUUUAACAUGAGGAUCACCCAUGUGGGUUGCGGUAUCGAGAAGGUAAAUUAAUAG [Mat - same State NG 2 - JL mod - D84] (Eterna round: R96, puzzle: Same State NG 2)
apparent KD of MS2 coat protein (input ligand: FMN 200 uM): 187 nM | apparent KD of MS2 coat protein [4]: 129 nM | apparent KD of MS2 coat protein (input ligand: none): 196 nM

GGAGCCGGCACUGAGGAUAUUCAUAUUAAAACAUGAGGAUCACCCAUGUAGGCCAGAAGGCCUUGGGAGAAGGCAGGUCGGCUCG [salish99_ss2_r3_075] (puzzle: Same State 2)
apparent KD of MS2 coat protein [1]: 27.1 nM | apparent KD of MS2 coat protein [2]: 408 nM | apparent KD of MS2 coat protein [3]: 901 nM

UGACAAGUGGUAGGAUAUCCAUGACAUGAGGAUCACCCAUGUUCUUUUGGUGUCCGUCACGGACGGGAGAAGGACCAACAUGAG [Same State NG2 S3] (Eterna round: R96, puzzle: Same State NG 2)
apparent KD of MS2 coat protein (input ligand: FMN 200 uM): 10.1 nM | apparent KD of MS2 coat protein [4]: 9.45 nM | apparent KD of MS2 coat protein (input ligand: none): 12.9 nM

CUCAACAACACAGGAUAUCCAGGGAAAAGACCUGGAGAAGGGUGACCAACAUGAGGAUCACCCAUGUGACGGCUAGACCGUCUG [Isquce] (Eterna round: R96, puzzle: Same State NG 1)
apparent KD of MS2 coat protein (input ligand: FMN 200 uM): 593 nM | apparent KD of MS2 coat protein [4]: 24 nM | apparent KD of MS2 coat protein (input ligand: none): 249 nM

UUUAGCGUUACAGGAUAUGGUGAGGAUCACCCACUAGAAGGGUAAACAUGUGCGUCGUACAUGAGGAUCACCCAUGUAGGGCGU (Eterna round: R96, puzzle: Same State NG 1)
apparent KD of MS2 coat protein (input ligand: FMN 200 uM): 14.4 nM | apparent KD of MS2 coat protein [4]: 13.7 nM | apparent KD of MS2 coat protein (input ligand: none): 22.6 nM

GCAAUGGCGGUAGGAUAUCUAGGAUAUGGGAAAGACUAAGUCUGUAGGUCACCUAACCCAGAAGGAGAGAAGGACCCUGUAAGG [pwkr ssNG2 2FMN + F9.24] (Eterna round: R96, puzzle: Same State NG 2)
apparent KD of MS2 coat protein (input ligand: FMN 200 uM): 43.2 nM | apparent KD of MS2 coat protein [4]: 9.31 nM | apparent KD of MS2 coat protein (input ligand: none): 30.8 nM

AGCUAUCGAAAACGAUAGCAAAAGCAUGUACAUGAGGAUCACCCAUGUCAUGUACAAGCUUUUUGUUCGUCUUAAAA [Zipper 23 - 14] (puzzle: Sensor for hsa-mir-208a)
apparent KD of MS2 coat protein [1]: 430 nM | apparent KD of MS2 coat protein [2]: 11.7 nM | apparent KD of MS2 coat protein [3]: 334 nM

GGAAUAUUUACAGGAUAUGAGUUGUAAAGUCGAUCAGAAGGGUAGAUGUCUUACACGGUGUGUUACAUGAGGAUCACCCAUGUU [SameState NG1 #19] (Eterna round: R96, puzzle: Same State NG 1)
apparent KD of MS2 coat protein (input ligand: FMN 200 uM): 169 nM | apparent KD of MS2 coat protein [4]: 160 nM | apparent KD of MS2 coat protein (input ligand: none): 218 nM

GGUGAGAGAGUCUAGGAUAUGAAAGGAGAGACAUGAGGAUCACCCAUGUAAGAGAGAGAGGAGAGUUAGAAGGAGAAGAGAGUGG [Altered State 2-23 - Jieux - Same State 2] (puzzle: Same State 2)
apparent KD of MS2 coat protein [1]: 26.8 nM | apparent KD of MS2 coat protein [2]: 32 nM | apparent KD of MS2 coat protein [3]: 47 nM

GGAGCCGGCACUGAGGAUAUUCAUAUUAAAACAUGAGGAUCACCCAUGUAGGCCAGAAGGCCUUGGGAGAAGGCAGGUCGGCUCG [salish99_ss2_r3_075] (Eterna round: R96, puzzle: Same State 2)
apparent KD of MS2 coat protein (input ligand: FMN 200 uM): 20 nM | apparent KD of MS2 coat protein [4]: 188 nM | apparent KD of MS2 coat protein (input ligand: none): 283 nM

AGGCCAUCGGGAGGAUAUGGCACCUUAUUGGUGCCAGAAGGUCCAACAUGAGGAUCACCCAUGUGGGAGAGUUCUAAUGAACAU [Fiskers NG1(SS) - 3] (Eterna round: R96, puzzle: Same State NG 1)
apparent KD of MS2 coat protein (input ligand: FMN 200 uM): 28.4 nM | apparent KD of MS2 coat protein [4]: 25.3 nM | apparent KD of MS2 coat protein (input ligand: none): 32.2 nM
